# Data reported in patent publication US20150344570A1 (published 2015).
# B1: GpH7-A5/GpH7-B3 variant A327_12R/GpL16-k0 (antibody, human IgG1, kappa)
# heavy 1: not shown
# heavy 2: not shown
# light: DIVMTQSPLSLPVTPGEPASISCQASESLVHSNRNTYLHWYLQKPGQSPQLLIYKVSNRFSGVPDRFSGSGSGTDFTLKISRVEAEDVGVYYCSQNTHVPPTFGQGTKVEIERTVAAPSVFIFPPSDEQLKSGTASVVCLLNNFYPREAKVQWKVDNALQSGNSQESVTEQDSKDSTYSLSSTLTLSKADYEKHKVYACEVTHQGLSSPVTKSFNRGEC
# notes: He Ab: mutation in one H chain only; also called He Ab
# B2: GpH7-B3 variant A327_09D/GpL16-k0 (antibody, human IgG1, kappa)
# heavy: not shown
# light: B1 light
# notes: also called Ho Ab A327_09D
# B3: GpH7-B3 variant I336_08L/GpL16-k0 (antibody, human IgG1, kappa)
# heavy: not shown
# light: B1 light
# notes: also called Ho Ab I336_08L
# B4: GpH7-B3 variant A330_19Q/GpL16-k0 (antibody, human IgG1, kappa)
# heavy: not shown
# light: B1 light
# notes: also called Ho Ab A330_19Q
# B5: GpH7-B3 variant S337_07I/GpL16-k0 (antibody, human IgG1, kappa)
# heavy: not shown
# light: B1 light
# notes: also called Ho Ab S337_07I
# B6: GpH7-B3 variant L234_15Y/GpL16-k0 (antibody, human IgG1, kappa)
# heavy: not shown
# light: B1 light
# notes: also called Ho Ab L234_15Y
# B7: GpH7-B3 variant L328_06M/GpL16-k0 (antibody, human IgG1, kappa)
# heavy: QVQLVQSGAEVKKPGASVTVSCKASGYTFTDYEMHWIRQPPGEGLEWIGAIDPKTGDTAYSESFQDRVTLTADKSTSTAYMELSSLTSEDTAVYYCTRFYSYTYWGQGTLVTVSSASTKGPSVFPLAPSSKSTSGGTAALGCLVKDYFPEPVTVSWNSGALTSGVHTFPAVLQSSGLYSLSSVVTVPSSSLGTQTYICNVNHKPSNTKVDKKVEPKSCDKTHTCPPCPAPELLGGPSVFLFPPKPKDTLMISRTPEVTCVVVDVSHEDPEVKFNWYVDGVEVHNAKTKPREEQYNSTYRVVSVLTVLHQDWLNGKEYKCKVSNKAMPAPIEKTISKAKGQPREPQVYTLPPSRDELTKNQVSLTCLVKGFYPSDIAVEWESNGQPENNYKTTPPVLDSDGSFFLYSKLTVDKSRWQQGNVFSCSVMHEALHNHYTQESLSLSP
# light: B1 light
# notes: also called Ho Ab L328_06M
# B8: GpH7-B3 variant L235_04F/GpL16-k0 (antibody, human IgG1, kappa)
# heavy: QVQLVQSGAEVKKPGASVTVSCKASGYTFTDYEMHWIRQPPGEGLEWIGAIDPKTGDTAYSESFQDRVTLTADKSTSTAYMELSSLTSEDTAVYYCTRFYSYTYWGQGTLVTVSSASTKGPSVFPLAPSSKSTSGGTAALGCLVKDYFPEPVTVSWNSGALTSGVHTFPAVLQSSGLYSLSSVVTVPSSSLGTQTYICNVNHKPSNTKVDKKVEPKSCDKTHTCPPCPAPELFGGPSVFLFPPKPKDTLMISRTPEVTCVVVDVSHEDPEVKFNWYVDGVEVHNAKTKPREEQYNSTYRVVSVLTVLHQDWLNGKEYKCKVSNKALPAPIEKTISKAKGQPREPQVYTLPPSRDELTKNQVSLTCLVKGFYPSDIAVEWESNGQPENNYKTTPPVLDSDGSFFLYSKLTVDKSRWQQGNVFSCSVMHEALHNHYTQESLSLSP
# light: B1 light
# notes: also called Ho Ab L235_04F
# B9: GpH7-B3 variant G236_04F/GpL16-k0 (antibody, human IgG1, kappa)
# heavy: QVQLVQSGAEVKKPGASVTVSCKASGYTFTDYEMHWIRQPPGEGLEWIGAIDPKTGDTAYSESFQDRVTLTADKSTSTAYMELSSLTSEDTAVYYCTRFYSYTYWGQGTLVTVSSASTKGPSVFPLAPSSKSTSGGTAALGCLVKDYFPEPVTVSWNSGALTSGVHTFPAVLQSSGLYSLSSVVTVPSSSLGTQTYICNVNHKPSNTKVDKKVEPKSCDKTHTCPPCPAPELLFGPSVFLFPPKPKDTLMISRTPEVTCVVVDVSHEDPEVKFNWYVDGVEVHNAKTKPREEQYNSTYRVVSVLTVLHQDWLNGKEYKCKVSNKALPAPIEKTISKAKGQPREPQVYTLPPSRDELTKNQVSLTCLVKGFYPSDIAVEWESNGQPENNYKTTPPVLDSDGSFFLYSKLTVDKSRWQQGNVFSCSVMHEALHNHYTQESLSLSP
# light: B1 light
# notes: also called Ho Ab G236_04F
# B10: GpH7-B3 variant Y296_16H/GpL16-k0 (antibody, human IgG1, kappa)
# heavy: not shown
# light: B1 light
# notes: also called Ho Ab Y296_16H
# B11: GpH7-B3 variant K334_04F/GpL16-k0 (antibody, human IgG1, kappa)
# heavy: not shown
# light: B1 light
# notes: also called Ho Ab K334_04F
# B12: GpH7-B3 variant A330_16H/GpL16-k0 (antibody, human IgG1, kappa)
# heavy: not shown
# light: B1 light
# notes: also called Ho Ab A330_16H
# B13: GpH7-B3 variant E333_09D/GpL16-k0 (antibody, human IgG1, kappa)
# heavy: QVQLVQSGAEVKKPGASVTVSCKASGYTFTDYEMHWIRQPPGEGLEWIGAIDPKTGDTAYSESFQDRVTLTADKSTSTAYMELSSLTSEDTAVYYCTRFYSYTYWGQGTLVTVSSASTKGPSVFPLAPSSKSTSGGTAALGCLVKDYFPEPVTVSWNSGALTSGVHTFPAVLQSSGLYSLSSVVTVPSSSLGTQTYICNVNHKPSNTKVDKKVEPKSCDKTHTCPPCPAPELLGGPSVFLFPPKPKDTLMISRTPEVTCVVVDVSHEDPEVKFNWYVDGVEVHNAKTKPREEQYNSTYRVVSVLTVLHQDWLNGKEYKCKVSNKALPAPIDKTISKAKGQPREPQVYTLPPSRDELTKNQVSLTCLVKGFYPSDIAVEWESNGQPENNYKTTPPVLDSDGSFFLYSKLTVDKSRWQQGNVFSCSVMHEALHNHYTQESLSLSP
# light: B1 light
# notes: also called Ho Ab E333_09D
# B14: GpH7-B3 variant K326_01G/GpL16-k0 (antibody, human IgG1, kappa)
# heavy: not shown
# light: B1 light
# notes: also called Ho Ab K326_01G
# B15: GpH7-B3 variant L328_20W/GpL16-k0 (antibody, human IgG1, kappa)
# heavy: not shown
# light: B1 light
# notes: also called Ho Ab L328_20W
# B16: GpH7-B3 variant E333_14T/GpL16-k0 (antibody, human IgG1, kappa)
# heavy: not shown
# light: B1 light
# notes: also called Ho Ab E333_14T
# B17: GpH7-B3 variant L235_15Y/GpL16-k0 (antibody, human IgG1, kappa)
# heavy: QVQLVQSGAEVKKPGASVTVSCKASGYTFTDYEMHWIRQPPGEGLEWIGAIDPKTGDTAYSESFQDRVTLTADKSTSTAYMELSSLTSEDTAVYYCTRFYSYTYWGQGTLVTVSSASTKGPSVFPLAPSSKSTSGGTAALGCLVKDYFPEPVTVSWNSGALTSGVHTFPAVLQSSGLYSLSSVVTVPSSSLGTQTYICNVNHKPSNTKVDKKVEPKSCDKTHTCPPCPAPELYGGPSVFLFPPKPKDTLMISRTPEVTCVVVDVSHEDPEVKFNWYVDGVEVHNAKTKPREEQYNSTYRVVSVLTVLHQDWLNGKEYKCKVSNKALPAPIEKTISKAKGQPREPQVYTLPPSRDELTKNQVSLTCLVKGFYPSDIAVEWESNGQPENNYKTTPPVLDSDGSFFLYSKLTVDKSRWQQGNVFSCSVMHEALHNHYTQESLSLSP
# light: B1 light
# notes: also called Ho Ab L235_15Y
# B18: GpH7-B3 variant K334_08L/GpL16-k0 (antibody, human IgG1, kappa)
# heavy: not shown
# light: B1 light
# notes: also called Ho Ab K334_08L
# B19: GpH7-B3 variant S239_10E/GpL16-k0 (antibody, human IgG1, kappa)
# heavy: not shown
# light: B1 light
# notes: also called Ho Ab S239_10E
# B20: GpH7-B3 variant I336_06M/GpL16-k0 (antibody, human IgG1, kappa)
# heavy: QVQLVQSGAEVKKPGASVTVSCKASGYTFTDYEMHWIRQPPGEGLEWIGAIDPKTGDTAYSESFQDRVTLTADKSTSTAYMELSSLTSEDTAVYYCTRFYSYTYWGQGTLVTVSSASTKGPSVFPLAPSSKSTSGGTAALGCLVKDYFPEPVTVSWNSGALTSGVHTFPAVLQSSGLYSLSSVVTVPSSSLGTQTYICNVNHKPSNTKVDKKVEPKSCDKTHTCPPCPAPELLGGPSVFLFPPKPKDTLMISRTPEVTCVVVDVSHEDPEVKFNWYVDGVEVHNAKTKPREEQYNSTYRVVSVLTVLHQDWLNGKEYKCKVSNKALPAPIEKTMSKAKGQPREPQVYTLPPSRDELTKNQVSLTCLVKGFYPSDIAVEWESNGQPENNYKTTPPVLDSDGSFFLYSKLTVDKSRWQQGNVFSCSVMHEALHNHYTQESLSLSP
# light: B1 light
# notes: also called Ho Ab I336_06M
# B21: GpH7-B3 variant K326_06M/GpL16-k0 (antibody, human IgG1, kappa)
# heavy: not shown
# light: B1 light
# notes: also called Ho Ab K326_06M
# B22: GpH7-B3 variant K326_12R/GpL16-k0 (antibody, human IgG1, kappa)
# heavy: not shown
# light: B1 light
# notes: also called Ho Ab K326_12R
# B23: GpH7-B3 variant S239_08L/GpL16-k0 (antibody, human IgG1, kappa)
# heavy: not shown
# light: B1 light
# notes: also called Ho Ab S239_08L
# B24: GpH7-B3 variant K326_19Q/GpL16-k0 (antibody, human IgG1, kappa)
# heavy: not shown
# light: B1 light
# notes: also called Ho Ab K326_19Q
# B25: GpH7-B3 variant G236_14T/GpL16-k0 (antibody, human IgG1, kappa)
# heavy: not shown
# light: B1 light
# notes: also called Ho Ab G236_14T
# B26: GpH7-B3 variant E333_13S/GpL16-k0 (antibody, human IgG1, kappa)
# heavy: not shown
# light: B1 light
# notes: also called Ho Ab E333_13S
# B27: GpH7-B3 variant L235_20W/GpL16-k0 (antibody, human IgG1, kappa)
# heavy: not shown
# light: B1 light
# notes: also called Ho Ab L235_20W
# B28: GpH7-B3 variant K326_07I/GpL16-k0 (antibody, human IgG1, kappa)
# heavy: not shown
# light: B1 light
# notes: also called Ho Ab K326_07I
# B29: GpH7-B3 variant T335_20W/GpL16-k0 (antibody, human IgG1, kappa)
# heavy: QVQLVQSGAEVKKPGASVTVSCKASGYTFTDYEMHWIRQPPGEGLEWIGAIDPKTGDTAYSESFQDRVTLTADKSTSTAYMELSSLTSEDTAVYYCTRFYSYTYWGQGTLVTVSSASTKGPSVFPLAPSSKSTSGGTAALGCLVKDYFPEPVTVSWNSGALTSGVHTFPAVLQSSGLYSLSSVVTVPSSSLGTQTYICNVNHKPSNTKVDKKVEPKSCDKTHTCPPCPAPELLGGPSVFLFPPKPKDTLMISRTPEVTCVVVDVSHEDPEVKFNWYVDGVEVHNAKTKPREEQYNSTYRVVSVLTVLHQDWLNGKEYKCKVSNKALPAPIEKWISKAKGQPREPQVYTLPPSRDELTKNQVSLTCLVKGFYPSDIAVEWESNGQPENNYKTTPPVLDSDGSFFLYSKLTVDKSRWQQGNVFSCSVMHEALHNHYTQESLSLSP
# light: B1 light
# notes: also called Ho Ab T335_20W
# B30: GpH7-B3 variant S337_08L/GpL16-k0 (antibody, human IgG1, kappa)
# heavy: not shown
# light: B1 light
# notes: also called Ho Ab S337_08L
# B31: GpH7-B3 variant K326_10E/GpL16-k0 (antibody, human IgG1, kappa)
# heavy: not shown
# light: B1 light
# notes: also called Ho Ab K326_10E
# B32: GpH7-B3 variant I336_18N/GpL16-k0 (antibody, human IgG1, kappa)
# heavy: not shown
# light: B1 light
# notes: also called Ho Ab I336_18N
# B33: GpH7-B3 variant K334_16H/GpL16-k0 (antibody, human IgG1, kappa)
# heavy: not shown
# light: B1 light
# notes: also called Ho Ab K334_16H
# B34: GpH7-B3 variant K334_13S/GpL16-k0 (antibody, human IgG1, kappa)
# heavy: not shown
# light: B1 light
# notes: also called Ho Ab K334_13S
# B35: GpH7-B3 variant S267_10E/GpL16-k0 (antibody, human IgG1, kappa)
# heavy: not shown
# light: B1 light
# notes: also called Ho Ab S267_10E
# B36: GpH7-B3 variant L234_04F/GpL16-k0 (antibody, human IgG1, kappa)
# heavy: not shown
# light: B1 light
# notes: also called Ho Ab L234_04F
# B37: GpH7-B3 variant Y296_09D/GpL16-k0 (antibody, human IgG1, kappa)
# heavy: not shown
# light: B1 light
# notes: also called Ho Ab Y296_09D
# B38: GpH7-B3 variant T335_18N/GpL16-k0 (antibody, human IgG1, kappa)
# heavy: not shown
# light: B1 light
# notes: also called Ho Ab T335_18N
# B39: GpH7-B3 variant I336_10E/GpL16-k0 (antibody, human IgG1, kappa)
# heavy: not shown
# light: B1 light
# notes: also called Ho Ab I336_10E
# B40: GpH7-B3 variant S337_20W/GpL16-k0 (antibody, human IgG1, kappa)
# heavy: not shown
# light: B1 light
# notes: also called Ho Ab S337_20W
# B41: GpH7-B3 variant L234_20W/GpL16-k0 (antibody, human IgG1, kappa)
# heavy: not shown
# light: B1 light
# notes: also called Ho Ab L234_20W
# B42: GpH7-B3 variant H268_02A/GpL16-k0 (antibody, human IgG1, kappa)
# heavy: not shown
# light: B1 light
# notes: also called Ho Ab H268_02A
# B43: GpH7-B3 variant S267_09D/GpL16-k0 (antibody, human IgG1, kappa)
# heavy: not shown
# light: B1 light
# notes: also called Ho Ab S267_09D
# B44: GpH7-B3 variant E333_04F/GpL16-k0 (antibody, human IgG1, kappa)
# heavy: not shown
# light: B1 light
# notes: also called Ho Ab E333_04F
# B45: GpH7-B3 variant Y296_04F/GpL16-k0 (antibody, human IgG1, kappa)
# heavy: not shown
# light: B1 light
# notes: also called Ho Ab Y296_04F
# B46: GpH7-B3 variant G236_07I/GpL16-k0 (antibody, human IgG1, kappa)
# heavy: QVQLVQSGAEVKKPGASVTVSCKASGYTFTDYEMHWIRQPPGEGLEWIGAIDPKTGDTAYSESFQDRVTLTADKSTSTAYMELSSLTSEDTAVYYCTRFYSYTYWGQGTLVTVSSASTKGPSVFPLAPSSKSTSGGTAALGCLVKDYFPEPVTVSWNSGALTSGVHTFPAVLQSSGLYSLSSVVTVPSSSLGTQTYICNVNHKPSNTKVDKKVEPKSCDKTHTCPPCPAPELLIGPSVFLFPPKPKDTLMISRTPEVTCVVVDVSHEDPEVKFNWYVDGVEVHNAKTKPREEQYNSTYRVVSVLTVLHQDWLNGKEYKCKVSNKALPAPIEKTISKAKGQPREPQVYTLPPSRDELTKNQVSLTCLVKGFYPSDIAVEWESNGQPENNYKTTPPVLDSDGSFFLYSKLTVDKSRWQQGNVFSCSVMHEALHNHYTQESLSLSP
# light: B1 light
# notes: also called Ho Ab G236_07I
# B47: GpH7-B3 variant G236_15Y/GpL16-k0 (antibody, human IgG1, kappa)
# heavy: not shown
# light: B1 light
# notes: also called Ho Ab G236_15Y
# B48: GpH7-B3 variant H268_19Q/GpL16-k0 (antibody, human IgG1, kappa)
# heavy: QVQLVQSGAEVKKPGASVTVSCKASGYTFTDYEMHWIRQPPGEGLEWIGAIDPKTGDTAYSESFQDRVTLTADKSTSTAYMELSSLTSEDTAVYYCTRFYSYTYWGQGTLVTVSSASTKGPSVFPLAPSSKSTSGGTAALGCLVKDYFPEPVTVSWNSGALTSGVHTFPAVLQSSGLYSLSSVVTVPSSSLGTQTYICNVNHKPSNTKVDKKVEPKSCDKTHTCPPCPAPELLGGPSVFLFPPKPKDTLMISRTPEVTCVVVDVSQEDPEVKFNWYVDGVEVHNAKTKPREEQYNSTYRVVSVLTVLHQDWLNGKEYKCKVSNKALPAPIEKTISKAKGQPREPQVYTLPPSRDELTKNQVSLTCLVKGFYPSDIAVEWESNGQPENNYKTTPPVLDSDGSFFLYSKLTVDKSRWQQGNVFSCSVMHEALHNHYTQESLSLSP
# light: B1 light
# notes: also called Ho Ab H268_19Q
# B49: GpH7-B3 variant E333_08L/GpL16-k0 (antibody, human IgG1, kappa)
# heavy: not shown
# light: B1 light
# notes: also called Ho Ab E333_08L
# B50: GpH7-B3 variant I336_03V/GpL16-k0 (antibody, human IgG1, kappa)
# heavy: not shown
# light: B1 light
# notes: also called Ho Ab I336_03V
# B51: GpH7-B3 variant V266_08L/GpL16-k0 (antibody, human IgG1, kappa)
# heavy: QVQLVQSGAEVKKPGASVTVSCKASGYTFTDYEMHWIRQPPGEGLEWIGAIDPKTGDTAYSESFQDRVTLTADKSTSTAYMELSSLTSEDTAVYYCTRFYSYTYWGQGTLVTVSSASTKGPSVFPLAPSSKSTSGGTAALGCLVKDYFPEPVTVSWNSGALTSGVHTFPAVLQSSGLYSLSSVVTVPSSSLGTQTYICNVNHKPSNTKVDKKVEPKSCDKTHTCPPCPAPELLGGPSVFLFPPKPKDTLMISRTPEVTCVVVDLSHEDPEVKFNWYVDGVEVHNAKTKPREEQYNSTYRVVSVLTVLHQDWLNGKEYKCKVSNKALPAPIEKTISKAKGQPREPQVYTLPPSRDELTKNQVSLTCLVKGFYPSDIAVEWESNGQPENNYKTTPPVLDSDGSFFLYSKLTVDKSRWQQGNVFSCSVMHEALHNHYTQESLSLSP
# light: B1 light
# notes: also called Ho Ab V266_08L
# B52: GpH7-B3 variant G236_03V/GpL16-k0 (antibody, human IgG1, kappa)
# heavy: not shown
# light: B1 light
# notes: also called Ho Ab G236_03V
# B53: GpH7-B3 variant L328_14T/GpL16-k0 (antibody, human IgG1, kappa)
# heavy: not shown
# light: B1 light
# notes: also called Ho Ab L328_14T
# B54: GpH7-B3 variant K334_19Q/GpL16-k0 (antibody, human IgG1, kappa)
# heavy: not shown
# light: B1 light
# notes: also called Ho Ab K334_19Q
# B55: GpH7-B3 variant H268_18N/GpL16-k0 (antibody, human IgG1, kappa)
# heavy: not shown
# light: B1 light
# notes: also called Ho Ab H268_18N
# Target: T1, FcγRIa (human, UniProt P12314 16-292)
# T1 construct: extracellular domain; Soluble extracellular domain with C-terminal His tag, used as analyte; also called FcgRI; CD64; not shown: His tag at the C terminus
# T1 sequence (P12314 16-292): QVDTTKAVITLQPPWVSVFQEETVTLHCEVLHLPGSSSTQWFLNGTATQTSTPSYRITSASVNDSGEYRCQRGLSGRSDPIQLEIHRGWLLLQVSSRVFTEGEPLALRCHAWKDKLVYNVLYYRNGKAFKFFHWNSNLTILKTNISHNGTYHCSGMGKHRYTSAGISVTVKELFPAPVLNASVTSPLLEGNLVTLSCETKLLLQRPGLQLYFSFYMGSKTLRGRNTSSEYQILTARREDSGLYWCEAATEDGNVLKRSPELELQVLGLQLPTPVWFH
# Experiment: SPR (Biacore), captured antibody, FcγR as analyte, relative binding
# Procedure: The heterodimerized antibodies He Abs in which one of the H chains was introduced with an alteration were assayed for their binding activities to each activating FcγR and inhibitory FcγR according to the method described in Example 4. […] The activating FcγRs in FIGS. 26, 27, 28, and 29 are FcγRIa, FcγRIIa (R), FcγRIIa (H), and FcγRIIIa, respectively.
# Analysis of interaction between objective antibody and the FcγR was carried out using Biacore T100 (GE Healthcare). HBS-EP+ (GE Healthcare) was used as the running buffer, and the measurement temperature was set to 25° C. Chips produced by immobilizing the antigen peptide by the amine coupling method to a Series S Sencor Chip CM5 (GE Healthcare), or alternatively, chips produced by allowing preliminarily biotinylated antigen peptides to interact with and immobilize onto a Series S Sensor Chip SA (certified) (GE Healthcare) were used. Antibodies of interest were captured onto an antigen peptide-immobilized chip, and allowed to interact to each FcγR diluted with running buffer. To regenerate and repeatedly use the chip, the antibodies captured on the chip were washed off by reacting 10 mM glycine-HCl, pH 1.5.
row,He/Con_1a,Binder
1,86.7 % of GpH7-A5/GpH7-B3/GpL16-k0,B1

# Target: FcγRIIa H (human, UniProt P12318 34-217)
# Sequence (P12318 34-217): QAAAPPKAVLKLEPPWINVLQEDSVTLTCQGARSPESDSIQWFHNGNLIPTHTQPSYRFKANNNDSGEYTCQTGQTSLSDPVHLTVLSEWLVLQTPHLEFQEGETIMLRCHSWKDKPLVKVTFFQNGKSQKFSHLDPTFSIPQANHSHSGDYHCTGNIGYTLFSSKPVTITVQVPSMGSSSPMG
# Experiment: SPR Biacore, captured antibody, FcγR analyte; vs GpH7-B3/GpL16-k0 = 100
row,Ho/Con_2aH,Binder
1,90.1 % of control,B2
2,101 % of control,B3
3,99.2 % of control,B4
4,94 % of control,B5
5,43.8 % of control,B6
6,100 % of control,B7
7,101 % of control,B8
8,63.2 % of control,B9
9,85.7 % of control,B10
10,103 % of control,B11
11,101 % of control,B12
12,103 % of control,B13
13,98.2 % of control,B14
14,112 % of control,B15
15,90.4 % of control,B16
16,107 % of control,B17
17,103 % of control,B18
18,91.4 % of control,B19
19,100 % of control,B20
20,101 % of control,B21
21,98.8 % of control,B22
22,87 % of control,B23
23,100 % of control,B24
24,94.2 % of control,B25
25,94.6 % of control,B26
26,112 % of control,B27
27,78.1 % of control,B28

row,Ho/Con_2aH,Binder
1,98.7 % of control,B29
2,93.1 % of control,B30
3,101 % of control,B31
4,94.3 % of control,B32
5,101 % of control,B33
6,94.9 % of control,B34
7,98.5 % of control,B35
8,54.2 % of control,B36
9,99.9 % of control,B37
10,98 % of control,B38
11,93.4 % of control,B39
12,96.6 % of control,B40
13,55.3 % of control,B41
14,111 % of control,B42
15,91.5 % of control,B43
16,93.6 % of control,B44
17,95 % of control,B45
18,101 % of control,B46
19,80.4 % of control,B47
20,102 % of control,B48
21,96.5 % of control,B49
22,90.4 % of control,B50
23,91.5 % of control,B51
24,111 % of control,B52
25,110 % of control,B53
26,97.2 % of control,B54
27,110 % of control,B55
